According to US20190367620A1 (Merck KGaA, published 2019):
Changes are numbered by the printed parent chain.

Legend:
Assay in all cases: SPR; free energy change relative to wild-type D2
[1] = target: T1, FGFR1 D2 point mutant S45A (human, UniProt P11362 22-254)
T1 chain: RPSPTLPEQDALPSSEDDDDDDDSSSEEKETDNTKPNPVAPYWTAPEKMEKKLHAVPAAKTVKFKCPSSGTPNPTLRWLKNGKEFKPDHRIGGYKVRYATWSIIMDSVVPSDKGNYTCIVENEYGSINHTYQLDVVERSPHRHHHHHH
Procedure: (§1) Binding affinities of anti-FGFR1 antibodies to FGFR1 were measured by Surface Plasmon Resonance (SPR) using a GE Healthcare BIAcore 4000 instrument as follows. Goat anti-human Fc antibody (Jackson ImmunoResearch Laboratories #109-005-098) was first immobilized on BIAcore carboxymethylated dextran CM5 chip using direct coupling to free amino groups following the procedure described by the manufacturer. Antibodies were then captured on the CM5 biosensor chip to achieve approximately 200 response units (RU). Binding measurements were performed using the running HBS-EP+ buffer. A 2-fold dilution series of His-tagged FGFR1 proteins were injected at a flow rate of 30 μl/min at 25° C. Association rates (kₒₙ, per mol/s) and dissociation rates (koff, per s) were calculated using a simple 1:1 Langmuir binding model (Biacore 4000 Evaluation Software). The equilibrium dissociation constant (KD, mol) was calculated as the ratio of koff/kₒₙ.
(§2) To obtain a finer, residue-level mapping of the epitope and to complement the HD exchange data, molecular modelling and manual inspection of the crystal structure of FGFR1 [(Beenken et al. 2012); PDB record 3OJV] was used to select solvent exposed residues within and around the epitope identified by HD exchange. The selected residues were mutated either to alanine (large to small) or to glycine if the selected residue was alanine. In total 35 point mutants were designed, expressed and purified in HEK cells, and tested for binding to mAb #A08 using surface plasmon resonance as described in Example 1.8. The affinity of the antibody for wild-type and each mutant was determined and used to calculate the contribution of each epitope residue to the binding energy.
(§3) Variant were compared to wild-type D2. The change in the Gibbs free energy of binding of mutant relative to the wild-type D2 construct (ΔΔGₘᵤₜ) was derived from the ratio of the wild-type and mutant KD.

[2] = target: T2, FGFR1 D2 point mutant E50A (human, UniProt P11362 22-254)
T2 chain: T1 chain with A45S, E50A
Procedure: as §1, §2, §3

[3] = target: T3, FGFR1 D2 point mutant H54A (human, UniProt P11362 22-254)
T3 chain: T1 chain with A45S, H54A
Procedure: as §1, §2, §3

[4] = target: T4, FGFR1 D2 point mutant V56A (human, UniProt P11362 22-254)
T4 chain: T1 chain with A45S, V56A
Procedure: as §1, §2, §3

[5] = target: T5, FGFR1 D2 point mutant A59G (human, UniProt P11362 22-254)
T5 chain: T1 chain with A45S, A59G
Procedure: as §1, §2, §3

[6] = target: T6, FGFR1 D2 point mutant D88A (human, UniProt P11362 22-254)
T6 chain: T1 chain with A45S, D88A
Procedure: as §1, §2, §3

[7] = target: T7, FGFR1 D2 point mutant H89A (human, UniProt P11362 22-254)
T7 chain: T1 chain with A45S, H89A
Procedure: as §1, §2, §3

[8] = target: T8, FGFR1 D2 point mutant G93A (human, UniProt P11362 22-254)
T8 chain: T1 chain with A45S, G93A
Procedure: as §1, §2, §3

[9] = target: T9, FGFR1 D2 point mutant S102A (human, UniProt P11362 22-254)
T9 chain: T1 chain with A45S, S102A
Procedure: as §1, §2, §3

[10] = target: T10, FGFR1 D2 point mutant D106A (human, UniProt P11362 22-254)
T10 chain: T1 chain with A45S, D106A
Procedure: as §1, §2, §3

- ΔΔGmut [1]: 0.05 kcal/mol
- ΔΔGmut [2]: 0.02 kcal/mol
- ΔΔGmut [3]: 0.37 kcal/mol
- ΔΔGmut [4]: 0.2 kcal/mol
- ΔΔGmut [5]: 1.78 kcal/mol
- ΔΔGmut [6]: -0.1 kcal/mol
- ΔΔGmut [7]: -0.02 kcal/mol
- ΔΔGmut [8]: 0.29 kcal/mol
- ΔΔGmut [9]: -0.13 kcal/mol
- ΔΔGmut [10]: 1.92 kcal/mol
B1: mAb #A08 (antibody, V domains shown)
VH: EVQLQESGPGLVKPSGTLSLTCAVSGGSISSNNWWSWVRQPPGKGLEWIGEIYHSGSTSYNPSLKSRVTISVDKSKNQFSLKLNSVTAADTAVYYCARGTDWFDPWGQGTLVTVSS
VL: QAVLTQPPSVSVAPGQTARITCGGNNIGSESVHWYQQKPGQAPVLVVYDDSDRPSGIPERFSGSNSGNTATLTISRVEAGDEADYYCQVWDSTSDHRVFGGGTKLTVL
notes: Only variable domains are tied to the name mAb #A08 (hit); also called #A08 hit; mAb #08
